In patent US20250339493A1, “METHODS OF USING NEUREGULIN-4 COMPOUNDS” (priority 2022, published 2025):

Experiments:
[1] = Cynomolgus continuous SC infusion toxicology study; format: in vivo, cynomolgus monkey
Procedure: (§1) Table 3 presents the estimated margins of safety of 21 mg/day infused for 24 hours and 140 mg/day infused for 96 hours doses of NRG4 compound. The anticipated therapeutic benefit for patients with HFrEF outweighs any potential risks identified in the nonclinical safety profile.

[2] = Rat continuous SC infusion toxicology study; format: in vivo
Procedure: as §1

[3] = Single-ascending dose study in healthy participants: plasma pharmacokinetics after single SC or IV dose; parameters: species or system human; details: in vivo
Text: A multiple-center, investigator- and participant-blind, randomized, placebo-controlled, single-ascending dose study is designed to evaluate the safety and tolerability of a single subcutaneous (SC) dose or an intravenous (IV) dose of the NRG4 compound of SEQ ID NO:1 in healthy participants. Cohorts 1-5 are intended to receive a single SC dose of the NRG4 compound or placebo. Cohort 6 is used to assess a single IV injection of the NRG4 compound. This cohort is to enable an estimation of absolute bioavailability of the NRG4 compound. Doses for the cohorts are as follows: • Cohort 1:1 mg (6 participants NRG4 compound; 2 participants placebo)· • Cohort 2:3 mg (6 participants NRG4 compound; 2 participants placebo). • Cohort 3:10 mg (6 participants NRG4 compound; 2 participants placebo). • Cohort 4:30 mg (6 participants NRG4 compound; 2 participants placebo). • Cohort 5:60 mg (6 participants NRG4 compound; 2 participants placebo). • Cohort 6 (8 participants 3 mg NRG4 compound IV) 48 participants received a dose of NRG4 compound or placebo, with eight males, and 40 females. The age range of the participants was 25 to 65 years. A stable dose of antihypertensive medication, with the exception of beta blockers, and lipid lowering medication were allowed. The study intervention was administered either via a single SC injection into the lower abdominal region or as an IV bolus from a syringe to an indwelling venous catheter. Study interventions administered are summarized in Table 2: On Day 1, participants receive a single dose of their assigned treatment (either NRG4 compound or placebo) for first 5 cohorts and NRG4 compound for the final IV cohort. PK sampling and safety assessments, including AEs, medical assessments, clinical laboratory tests, vital signs, and ECGs, were performed at predefined times through discharge from the CRU on Day 4. Dose escalated cohorts were only initiated after satisfactory review of the safety results from all participants receiving NRG4 compound in the preceding cohort through Day 4. Participants returned to the CRU for outpatient visits on Days 7 and 15 for PK, safety, and immunogenicity assessments, as appropriate. Follow-up visit for PK, safety, and immunogenicity monitoring occurred on Day 29. At the visits and times specified in the protocol venous blood samples of approximately 3 mL each were collected to determine the plasma concentrations of NRG4 compound. PK parameter estimates for NRG4 compound were calculated by standard noncompartmental methods of analysis using Phoenix WinNonlin Version 8.1. […] The PK parameters were summarized and listed separately for SC and IV-dosed cohorts. The plasma concentrations of the NRG4 compound were plotted and summarized. The dose proportionality for SC doses of NRG4 compound were assessed for the log-transformed Cmax, AUC (0-∞), and AUC (0-tlast) using a power model (where log-dose acted as an explanatory variable) to estimate ratios of dose normalized geometric means and corresponding 90% CIs. The estimated ratio of dose-normalized geometric means of PK parameters between the highest and lowest doses were used to assess dose proportionality.

[4] = Single-ascending dose study in healthy participants: safety and tolerability; format: in vivo
Text: A multiple-center, investigator- and participant-blind, randomized, placebo-controlled, single-ascending dose study is designed to evaluate the safety and tolerability of a single subcutaneous (SC) dose or an intravenous (IV) dose of the NRG4 compound of SEQ ID NO:1 in healthy participants. Cohorts 1-5 are intended to receive a single SC dose of the NRG4 compound or placebo. Cohort 6 is used to assess a single IV injection of the NRG4 compound. This cohort is to enable an estimation of absolute bioavailability of the NRG4 compound. Doses for the cohorts are as follows: • Cohort 1:1 mg (6 participants NRG4 compound; 2 participants placebo)· • Cohort 2:3 mg (6 participants NRG4 compound; 2 participants placebo). • Cohort 3:10 mg (6 participants NRG4 compound; 2 participants placebo). • Cohort 4:30 mg (6 participants NRG4 compound; 2 participants placebo). • Cohort 5:60 mg (6 participants NRG4 compound; 2 participants placebo). • Cohort 6 (8 participants 3 mg NRG4 compound IV)
48 participants received a dose of NRG4 compound or placebo, with eight males, and 40 females. The age range of the participants was 25 to 65 years. A stable dose of antihypertensive medication, with the exception of beta blockers, and lipid lowering medication were allowed. […]

[5] = cynomolgus monkey, in vivo, sc, 156 mg/kg/day
[6] = monkey NOAEL (M + F), 12.6 mg/kg/day, 96 h SC infusion
[7] = rat non-repro NOAEL (F), 16.1 mg/kg/day, 96 h SC infusion
[8] = rat, in vivo, sc, 1.6 mg/kg/day

Substance: NRG4 compound: NRG4 compound comprising amino acid sequence SEQ ID NO:1: GGGGSGHEEPCGPSHKSFCLNGGLCYQIPTIPSPFCRCVENYTGARCEKVEL; selective HER4 binding (GGGGSGHEEPCGPSHKSFCLNGGLCYQIPTIPSPFCRCVENYTGARCEKVFL)
- Cave, ss Multiple, Max Dose ([1]; cynomolgus monkey, in vivo): 16.9
- Cave, ss Multiple, Start Dose ([1]; cynomolgus monkey, in vivo): 109
- AUC0-t [1, 5]: 1840 µg·h/mL
- Cave, ss [1, 5]: 18600 ng/mL
- AUC0-t [1, 6]: 148 µg·h/mL
- Cave, ss [1, 6]: 1490 ng/mL
- NOAEL (M + F) dose ([1]; monkey, continuous SC infusion 96 h): 12.6 mg/kg/day
- AUC0-t [2, 7]: 53.3 µg·h/mL
- Cave, ss [2, 7]: 540 ng/mL
- Non-repro NOAEL (F) dose ([2]; rat, female, continuous SC infusion 96 h): 16.1 mg/kg/day
- AUC0-t [2, 8]: 7.17 µg·h/mL
- Cave, ss [2, 8]: 72 ng/mL
- LOAEL (M) dose ([2]; rat, male, continuous SC infusion 96 h): 1.6 mg/kg/day
- geometric mean F (absolute bioavailability) [3]: 104%
- geometric mean CL ([3]; iv): 6.01 L/h
- geometric mean Vss ([3]; iv): 13.6 L
- geometric mean Vz ([3]; iv): 22.0 L
- geometric mean t1/2 ([3]; iv): 2.53 h
- dose proportionality of AUC (0-0) ([3]; sc): slightly higher than proportional
- dose proportionality of Cmax ([3]; sc): slightly less than proportional
- dose proportionality of PK ([3]; sc): increase approximately proportionally
- geometric mean CL/F ([3]; sc): 4.88 to 6.05 L/h
- geometric mean Vz/F ([3]; sc): 19.2 to 24.3 L
- geometric mean t1/2 ([3]; sc): 2.45 h
- mean CL/F ([3]; sc): 4.9 to 6.05 L/h
- mean half-life ([3]; sc): 2.20 to 3.21 h
- median tmax ([3]; sc): 2.0 h
- tmax range ([3]; sc): 1.00 to 4.08 h
- t½ ([3]; sc): 2.5 to 3 h
- overall safety and tolerability ([4]; in vivo): safe and well-tolerated
- deaths, serious adverse events, discontinuations due to adverse events ([4]; single SC 1 to 60 mg or IV 3 mg, healthy participants): no deaths, serious adverse events (SAEs) or discontinuations due to adverse events were reported
